From patent publication US20090004644 (Conceptual MindWorks, Inc, published 2009)

Experiments:
[1] = target: Botulinum neurotoxin type A heavy chain (UniProt P0DPI1 P0DPI1:449-1296)
[2] = target: Botulinum neurotoxin type B light chain (UniProt B1INP5 B1INP5:2-441)
[3] = target: Botulinum neurotoxin type A light chain (UniProt P0DPI1 P0DPI1:2-448)
[4] = target: Botulinum neurotoxin type B heavy chain (UniProt B1INP5 B1INP5:442-1291)
Botulinum neurotoxin type B heavy chain, sequence (B1INP5 442-1291, one chain of several): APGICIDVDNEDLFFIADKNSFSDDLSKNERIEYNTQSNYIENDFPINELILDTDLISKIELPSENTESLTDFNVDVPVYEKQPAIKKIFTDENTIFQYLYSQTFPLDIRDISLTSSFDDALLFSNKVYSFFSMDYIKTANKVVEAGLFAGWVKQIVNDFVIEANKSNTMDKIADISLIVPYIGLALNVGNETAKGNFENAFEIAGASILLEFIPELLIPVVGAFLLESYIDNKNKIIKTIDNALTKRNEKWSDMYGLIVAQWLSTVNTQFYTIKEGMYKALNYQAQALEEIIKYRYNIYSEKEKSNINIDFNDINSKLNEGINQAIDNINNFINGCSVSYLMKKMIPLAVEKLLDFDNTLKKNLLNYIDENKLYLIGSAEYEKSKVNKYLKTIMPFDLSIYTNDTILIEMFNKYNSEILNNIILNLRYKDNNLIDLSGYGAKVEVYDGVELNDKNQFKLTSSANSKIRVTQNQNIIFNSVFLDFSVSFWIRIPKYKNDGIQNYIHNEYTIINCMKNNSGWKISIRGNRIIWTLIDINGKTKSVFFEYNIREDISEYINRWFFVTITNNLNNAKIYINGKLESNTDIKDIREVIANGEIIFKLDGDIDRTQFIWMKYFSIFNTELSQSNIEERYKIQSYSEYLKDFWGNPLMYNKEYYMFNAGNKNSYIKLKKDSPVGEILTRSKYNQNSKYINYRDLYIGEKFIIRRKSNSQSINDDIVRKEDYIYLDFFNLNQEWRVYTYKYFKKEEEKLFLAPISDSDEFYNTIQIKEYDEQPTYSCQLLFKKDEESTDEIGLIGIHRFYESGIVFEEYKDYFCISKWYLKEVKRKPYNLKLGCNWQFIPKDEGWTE

Botulinum neurotoxin type A heavy chain, sequence (P0DPI1 449-1296, one chain of several): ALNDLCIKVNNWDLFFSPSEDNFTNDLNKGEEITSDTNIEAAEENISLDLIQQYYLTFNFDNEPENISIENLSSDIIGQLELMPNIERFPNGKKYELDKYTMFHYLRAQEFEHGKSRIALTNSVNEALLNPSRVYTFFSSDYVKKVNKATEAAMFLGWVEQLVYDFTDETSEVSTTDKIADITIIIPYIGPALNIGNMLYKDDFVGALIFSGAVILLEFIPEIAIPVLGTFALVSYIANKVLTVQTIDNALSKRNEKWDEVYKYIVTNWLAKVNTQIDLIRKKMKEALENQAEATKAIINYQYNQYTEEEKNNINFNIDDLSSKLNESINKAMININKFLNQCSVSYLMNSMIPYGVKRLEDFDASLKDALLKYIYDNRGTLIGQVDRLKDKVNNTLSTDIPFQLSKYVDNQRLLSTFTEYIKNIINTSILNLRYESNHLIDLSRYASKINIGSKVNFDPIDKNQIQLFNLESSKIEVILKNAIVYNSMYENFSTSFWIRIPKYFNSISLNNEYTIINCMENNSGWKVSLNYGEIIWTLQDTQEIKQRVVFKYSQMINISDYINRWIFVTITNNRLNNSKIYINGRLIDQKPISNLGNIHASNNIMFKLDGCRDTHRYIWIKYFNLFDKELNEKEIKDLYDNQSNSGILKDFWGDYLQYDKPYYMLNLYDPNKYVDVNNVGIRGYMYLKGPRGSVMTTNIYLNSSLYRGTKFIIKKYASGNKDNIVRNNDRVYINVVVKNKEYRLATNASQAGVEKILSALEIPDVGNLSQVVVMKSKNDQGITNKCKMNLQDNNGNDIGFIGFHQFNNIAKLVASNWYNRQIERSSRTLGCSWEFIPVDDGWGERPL
Botulinum neurotoxin type B light chain, sequence (B1INP5 2-441, one chain of several): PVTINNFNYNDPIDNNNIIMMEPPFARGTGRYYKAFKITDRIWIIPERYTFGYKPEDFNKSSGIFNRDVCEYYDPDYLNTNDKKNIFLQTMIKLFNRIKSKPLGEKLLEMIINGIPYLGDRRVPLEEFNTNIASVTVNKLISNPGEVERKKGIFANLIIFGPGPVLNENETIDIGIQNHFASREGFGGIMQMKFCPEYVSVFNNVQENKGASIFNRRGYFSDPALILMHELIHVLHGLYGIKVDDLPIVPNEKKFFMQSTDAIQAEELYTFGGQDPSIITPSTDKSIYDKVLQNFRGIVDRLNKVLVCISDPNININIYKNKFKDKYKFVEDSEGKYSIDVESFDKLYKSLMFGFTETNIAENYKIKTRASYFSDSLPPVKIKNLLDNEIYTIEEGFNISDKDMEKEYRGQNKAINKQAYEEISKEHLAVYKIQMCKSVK
Botulinum neurotoxin type A light chain, sequence (P0DPI1 2-448, one chain of several): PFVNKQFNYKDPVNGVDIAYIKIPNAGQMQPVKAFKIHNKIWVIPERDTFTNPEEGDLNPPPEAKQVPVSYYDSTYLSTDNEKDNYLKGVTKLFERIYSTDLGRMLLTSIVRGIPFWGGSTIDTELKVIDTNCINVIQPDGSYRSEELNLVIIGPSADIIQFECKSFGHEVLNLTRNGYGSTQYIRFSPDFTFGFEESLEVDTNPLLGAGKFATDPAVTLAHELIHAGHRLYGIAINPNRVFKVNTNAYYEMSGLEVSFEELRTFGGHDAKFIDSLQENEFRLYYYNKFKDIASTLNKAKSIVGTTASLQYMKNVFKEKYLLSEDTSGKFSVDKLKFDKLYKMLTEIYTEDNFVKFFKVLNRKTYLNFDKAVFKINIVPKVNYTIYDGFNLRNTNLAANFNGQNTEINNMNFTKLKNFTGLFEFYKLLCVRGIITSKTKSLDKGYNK

Row | Binder | binding result [1] | binding result [2] | binding result [3] | binding result [4]
1 | 3(+) SELEX LCA aptamer (DCE-3) (ssDNA) DNA: CATCCGTCACACCTGCTCTGGGGATGTGTGGTGTTGGCTCCCGTATCAAGGGCGAATTCT | binds | binds | binds | binds
2 | 4(+) SELEX holotoxin aptamer (DCE-4) (ssDNA) DNA: CATCCGTCACACCTGCTCTGCTATCACATGCCTGCTGAAGTGGTGTTGGCTCCCGTATCA | binds | – | – | binds
3 | LCA 1(+) (DCE-1) (ssDNA) DNA: AGTCTAGAGGGCCCCAGAATACACCCGACAACTAGATACCCATCAAAAGTCCAGCAAAGGATGCAGGGGT | no binding | – | binds | no binding
4 | LCB 2(+) (DCE-2) (ssDNA) DNA: AGTCTAGAGGGCCCCAGAATTATCCACTAGCGGGAAGTAGTACATCTCACCCAGCAAAGGATGCAGGGGT | – | binds | – | –
